Legend:
[1] = target: LRRK2 G2019S, full-length, N-terminal Strep-FLAG (SF) tagged (human) (UniProt Q5S007); assay: native gel or EMSA; conditions: remark: other sources report otherwise
[2] = target: LRRK2 R1441G, full-length, N-terminal Strep-FLAG (SF) tagged (human) (UniProt Q5S007); assay: native gel or EMSA
[3] = target: Leucine-rich repeat kinase 2 (LRRK2), full-length wild type, N-terminal Strep-FLAG (SF) tagged (human) (UniProt Q5S007); assay: mass photometry; conditions: remark: other sources report otherwise

LRRK2 G2019S, full-length, N-terminal Strep-FLAG (SF) tagged, Q5S007 1-2527
stoichiometry N [1]: 2

LRRK2 R1441G, full-length, N-terminal Strep-FLAG (SF) tagged, Q5S007 1-2527
stoichiometry N [2]: 2

Leucine-rich repeat kinase 2 (LRRK2), full-length wild type, N-terminal Strep-FLAG (SF) tagged, Q5S007 1-2527
Kd [3]: 200 nM

Reference: doi:10.1101/2023.08.11.549911
